The target in series [1] is T1, Arxula adeninivorans LS3 Tannase II (Atan2p), SEQ ID NO: 4 (Blastobotrys adeninivorans, UniProt Q5GMI6).
T1 sequence (Q5GMI6 29-448): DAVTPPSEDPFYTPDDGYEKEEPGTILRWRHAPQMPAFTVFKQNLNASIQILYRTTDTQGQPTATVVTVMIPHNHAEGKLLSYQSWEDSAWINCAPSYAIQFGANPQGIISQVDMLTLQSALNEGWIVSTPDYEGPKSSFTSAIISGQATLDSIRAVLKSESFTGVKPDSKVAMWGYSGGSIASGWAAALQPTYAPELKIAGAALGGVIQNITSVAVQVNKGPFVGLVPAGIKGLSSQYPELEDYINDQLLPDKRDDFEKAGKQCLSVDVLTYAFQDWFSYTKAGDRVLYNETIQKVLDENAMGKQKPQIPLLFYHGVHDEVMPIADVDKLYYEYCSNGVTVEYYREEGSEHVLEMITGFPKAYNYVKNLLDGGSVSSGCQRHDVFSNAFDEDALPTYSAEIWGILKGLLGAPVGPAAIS
The series can be described thus: Tannase assay with rhodanine, KM determination with tannin. Format: biochemical. Particulars: tannin solution 0,05-0,75 mg/ml, 15 min at 30°C; Lineweaver-Burk plot; read-out: KM-Wert (Tannin). As to the method:
(§1) Der Nachweis der Tannase mit Hilfe des Rhodanins, wurde nach einer Methode von Sharma et al. (Sharma S, Bhat TK, Dawra RK (2000) A spectrophotometric method for assay of tannase using Rhodanine. Anal. Biochem. 279: 85-89, 2000) durchgeführt.
(§2) Als Test-Kontrolle wurden 450 µl Puffer und 50 µl eingeengter Kulturüberstand zusammenpipettiert. Als Blank-Kontrolle wurden 250 µl der Substratlösung und 250 µl Puffer zusammengegeben. Diese drei verschiedenen Ansätze wurden anschließend für 5 Min bei 30°C inkubiert. […] Nach anschließender Inkubation für 5 Min bei 30°C wurden weitere 200 µl 0,5 M KOH zugegeben. Nach wiederholter Inkubation bei 30°C für 5 Min wird die Absorbtion der verschiedenen Ansätze bei 520 nm im Spektrophotometer (UV160-A/Shimadzu) gegen Wasser gemessen. Die Absorption kann nach folgender Formel berechnet werden: ΔA520nm = (ATest-ABlank)-(AKontrolle-ABlank) [formula]
(§3) Mit Hilfe einer Eichkurve wurde dann die entstandene Gallatmenge ermittelt. Einheiten/Enzym = ((μmol gebildetes Gallat/min)*(Vf))/((0, 05)) [formula] Vf = Verdünnungsfaktor 0,05 = eingesetztes Probevolumen (in Milliliter) Eine Einheit ist definiert als µmol gebildetes Gallat pro Minute.
Zur Bestimmung des KM-Wertes wurde zu je 50µl Tannase-Probe 250µl Tanninlösung in Konzentrationen von 0,05 mg/ml bis 0,75 mg/ml zugegeben, alles 15 Min bei 30°C inkubiert und die Tannaseaktivität gemessen. […]

Series [2] relates to Arxula adeninivorans LS3 Tannase I (Atan1p), SEQ ID NO: 3. The series is described as above. The series is classed as biochemical. Particulars: tannin solution 0,05-0,75 mg/ml, 15 min at 30°C; Lineweaver-Burk plot; read-out: KM-Wert (Tannin). As to the method: as §1, §2, §3
Zur Bestimmung des KM-Wertes wurde zu je 50 µl Tannase 250 µl Tanninlösung in Konzentrationen von 0,05 mg/ml bis 0,75 mg/ml zugegeben, alles 15 Min bei 30°C inkubiert und die Tannaseaktivität wie beschrieben ermittelt. […]

Substrate in series [3]: CCCCCCCCCC(=O)Oc1ccc([N+](=O)[O-])cc1
As to the kind of experiment: Lipase assay with p-nitrophenyl ester, native enzyme. The series is classed as biochemical, Arxula adeninivorans LS3. To be noted: other: native lipase; pH 7.5; 30.0 °C. As to the method:
(§4) Für diese Bestimmung wurde eine frische Stammlösung (3mM […] in 10 ml Propanol durch 10 Min vortexen lösen) angesetzt. Für den Messansatz wurden 850 µl 0,05 M Na-Phosphat-Puffer pH 7,5 und 100 µl der Stammlösung gemischt und anschließend 50 µl Probelösung zugegeben. Als Kontrolle wurden 900 µl Puffer und 100 µl Stammlösung zusammengegeben. Beide Ansätze wurden für 5-10 Min bei 30°C inkubiert und anschließend 1 ml Aceton zum Abstoppen der Reaktion zugegeben. Danach wurde die Absorption bei 410 nm im Spektrometer (UV160-A/Shimadzu) gegen Wasser gemessen: Die Enzymaktivität kann dann nach folgender Formel berechnet werden: Einheiten/ml Enzym = ((ΔA410nm/min Test-ΔA410nm/min Blank)*(Vf))/((14, 800)*(0, 05)) [formula] Vf = Verdünnungsfaktor 14800 I mol^-1 cm^-1= Extinktionskoeffizient von p-Nitrophenol bei 410nm (Quinn et al. 1982) 0,05 = eingesetztes Probevolumen (in Milliliter) Eine Einheit ist definiert als µmol gebildetes p-Nitrophenol pro Minute.
(§5) Da Atan2p eine sehr hohe Homologie zu Lipasen aufweist, wurde A. adeninivorans G1211/pAL-ALEU2m-ATAN2 parallel auf sekretorische Lipase-Aktivität mit p-Nitrophenyl-Caprate geprüft. Dazu erfolgte eine Anzucht in HMM + 2% Glukose bzw. HMM + 2% Xylitol, Bedingungen unter denen das native ATAN2-Gen nicht exprimiert wird, d. h. auch kein natives sekretorisches Atan2p auftritt. […]

Substrate in series [4]: CCCCCCCCCC(=O)Oc1ccc([N+](=O)[O-])cc1
The series can be described thus: Lipase assay with p-nitrophenyl ester, recombinant enzyme. To be noted: other: recombinant lipase; pH 7.5; 30.0 °C. Format: biochemical, Arxula adeninivorans. The procedure: as §4, §5

On to Tannin, for which the Km in series [1] stood at 1100 µM; in series [2], 150 µM.

B1: Tannase II (Atan2p nativ, native Lipase) secreted by A. adeninivorans LS3, SEQ ID NO: 4 (Blastobotrys adeninivorans) (protein)
chain: DAVTPPSEDPFYTPDDGYEKEEPGTILRWRHAPQMPAFTVFKQNLNASIQILYRTTDTQGQPTATVVTVMIPHNHAEGKLLSYQSWEDSAWINCAPSYAIQFGANPQGIISQVDMLTLQSALNEGWIVSTPDYEGPKSSFTSAIISGQATLDSIRAVLKSESFTGVKPDSKVAMWGYSGGSIASGWAAALQPTYAPELKIAGAALGGVIQNITSVAVQVNKGPFVGLVPAGIKGLSSQYPELEDYINDQLLPDKRDDFEKAGKQCLSVDVLTYAFQDWFSYTKAGDRVLYNETIQKVLDENAMGKQKPQIPLLFYHGVHDEVMPIADVDKLYYEYCSNGVTVEYYREEGSEHVLEMITGFPKAYNYVKNLLDGGSVSSGCQRHDVFSNAFDEDALPTYSAEIWGILKGLLGAPVGPAAIS
On to B1, for which, in series [3], the Km was determined as 400 µM and the Vmax is on record as 0,043 µmol x min^-1.

B2: Tannase II (Atan2p rekombinant, rekombinante Lipase) secreted by A. adeninivorans G1211/pAL-ALEU2m-ATAN2, SEQ ID NO: 4 (Blastobotrys adeninivorans) (protein)
chain: DAVTPPSEDPFYTPDDGYEKEEPGTILRWRHAPQMPAFTVFKQNLNASIQILYRTTDTQGQPTATVVTVMIPHNHAEGKLLSYQSWEDSAWINCAPSYAIQFGANPQGIISQVDMLTLQSALNEGWIVSTPDYEGPKSSFTSAIISGQATLDSIRAVLKSESFTGVKPDSKVAMWGYSGGSIASGWAAALQPTYAPELKIAGAALGGVIQNITSVAVQVNKGPFVGLVPAGIKGLSSQYPELEDYINDQLLPDKRDDFEKAGKQCLSVDVLTYAFQDWFSYTKAGDRVLYNETIQKVLDENAMGKQKPQIPLLFYHGVHDEVMPIADVDKLYYEYCSNGVTVEYYREEGSEHVLEMITGFPKAYNYVKNLLDGGSVSSGCQRHDVFSNAFDEDALPTYSAEIWGILKGLLGAPVGPAAIS
B2: in series [4], the Km was found to be 710 µM and the Vmax is 0,036 µmol x min^-1.

A word on the Km: it is the concentration of substrate that gives half-maximal velocity.

(Values after EP1763578B1, “TANNASE” (priority 2004, dated 2006).)
